According to PMC6056640, “Ghrelin Through GHSR1a and OX1R Heterodimers Reveals a Gαs–cAMP-cAMP Response Element Binding Protein Signaling Pathway in Vitro” (Frontiers in Molecular Neuroscience, 2018):

Target: T1, OX1R-Rluc (human, UniProt O43613 1-425)
T1 construct: Orexin type 1 receptor (OX1R), human cDNA (pcDNA3.1-OX1R, cDNA Resource Centre); construct made 'as described'; BRET donor; also called orexin type 1 receptor; Orexin 1 receptor; source: HEK293, transiently transfected, in living cells; not shown: Rluc, C-terminal, kept
T1 sequence (looked up): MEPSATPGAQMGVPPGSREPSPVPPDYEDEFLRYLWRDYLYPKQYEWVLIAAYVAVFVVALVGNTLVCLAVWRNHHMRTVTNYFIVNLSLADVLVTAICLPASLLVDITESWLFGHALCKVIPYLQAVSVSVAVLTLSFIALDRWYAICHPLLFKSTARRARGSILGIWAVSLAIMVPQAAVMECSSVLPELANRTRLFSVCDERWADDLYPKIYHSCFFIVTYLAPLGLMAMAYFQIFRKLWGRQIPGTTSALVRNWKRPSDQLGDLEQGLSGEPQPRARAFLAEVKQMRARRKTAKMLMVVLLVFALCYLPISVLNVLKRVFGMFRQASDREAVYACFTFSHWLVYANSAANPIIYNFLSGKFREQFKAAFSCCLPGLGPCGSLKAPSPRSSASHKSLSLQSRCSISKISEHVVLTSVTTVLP
Assay: FRET or BRET; BRET in living HEK293 cells; donor (Rluc fusion) and acceptor (EYFP fusion) plasmids 1:3; coelenterazine h 5 μM; also after ghrelin (100 nM) and/or orexin-A (100 nM) or vehicle for 10 min
Settings: partners not purified

mBRET ratio: 190
B1: GHSR1a-EYFP (receptor, UniProt Q92847 1-366, looked up)
chain: MWNATPSEEPGFNLTLADLDWDASPGNDSLGDELLQLFPAPLLAGVTATCVALFVVGIAGNLLTMLVVSRFRELRTTTNLYLSSMAFSDLLIFLCMPLDLVRLWQYRPWNFGDLLCKLFQFVSESCTYATVLTITALSVERYFAICFPLRAKVVVTKGRVKLVIFVIWAVAFCSAGPIFVLVGVEHENGTDPWDTNECRPTEFAVRSGLLTVMVWVSSIFFFLPVFCLTVLYSLIGRKLWRRRRGDAVVGASLRDQNHKQTVKMLAVVVFAFILCWLPFHVGRYLFSKSFEPGSLEIAQISQYCNLVSFVLFYLSAAINPILYNIMSKKYRVAVFRLLGFEPFSQRKLSTLKDESSRAWTESSINT
notes: Growth hormone secretagogue receptor 1α (GHSR1a); ORF inserted into the EYFP-N1 vector; cDNA from pcDNA3.1-GHSR1a (cDNA Resource Centre); BRET and FRET acceptor; The FRET methods call it EYFP-GHSR1a, but the construction paragraph puts EYFP on the C-terminus; also called growth hormone secretagogue receptor 1α; EYFP-GHSR1a; source: HEK293, transiently transfected, in living cells; not shown: …
